Laboratory results as given in patent publication US20040121942A1 (University of California, published 2004).

Columns and labels:
[1] = molecular target: T1, endogenous wild-type PLB of rat cardiac myocytes (rat, UniProt P61016 1-52); experiment: cell-based or functional assay
T1 sequence (looked up): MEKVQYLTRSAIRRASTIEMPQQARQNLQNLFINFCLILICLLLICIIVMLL

[2] = molecular target: T2, sense PLB (wild-type phospholamban) expressed from a recombinant adenovirus (human, UniProt P26678 1-52); experiment: Western blot of Sol8 cells co-infected with sPLB and K3E/R14E; bands read as heteropentamer
T2 construct: ID; PLB exists as pentamer and monomer; also called sPLB; wild-type PLB
T2 sequence: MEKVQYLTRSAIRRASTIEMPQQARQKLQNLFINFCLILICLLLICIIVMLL

B1: K3E/R14E double point mutation of PLB expressed from a recombinant adenovirus (other)
chain: MEEVQYLTRSAIREASTIEMPQQARQKLQNLFINFCLILICLLLICIIVMLL
notes: ID
lowering of the EC50 of Ca2+ for SR Ca2+ uptake, adult rat myocytes [1]: 36%
binding result [2]: binds
